Reference: patent US20140378382A1

How the values were obtained:
[1] = biological target: PTHR-1 (species and cells not stated for the assay) (Homo sapiens (Human)) (UniProt Q03431); test: cell-based or functional assay
[2] = biological target: parathyroid hormone receptor-2 (PTHR-2); test: cell-based or functional assay

Sequence of PTHR-1 (species and cells not stated for the assay) (Homo sapiens (Human)) (Q03431 27-593 limits assumed, form in doubt): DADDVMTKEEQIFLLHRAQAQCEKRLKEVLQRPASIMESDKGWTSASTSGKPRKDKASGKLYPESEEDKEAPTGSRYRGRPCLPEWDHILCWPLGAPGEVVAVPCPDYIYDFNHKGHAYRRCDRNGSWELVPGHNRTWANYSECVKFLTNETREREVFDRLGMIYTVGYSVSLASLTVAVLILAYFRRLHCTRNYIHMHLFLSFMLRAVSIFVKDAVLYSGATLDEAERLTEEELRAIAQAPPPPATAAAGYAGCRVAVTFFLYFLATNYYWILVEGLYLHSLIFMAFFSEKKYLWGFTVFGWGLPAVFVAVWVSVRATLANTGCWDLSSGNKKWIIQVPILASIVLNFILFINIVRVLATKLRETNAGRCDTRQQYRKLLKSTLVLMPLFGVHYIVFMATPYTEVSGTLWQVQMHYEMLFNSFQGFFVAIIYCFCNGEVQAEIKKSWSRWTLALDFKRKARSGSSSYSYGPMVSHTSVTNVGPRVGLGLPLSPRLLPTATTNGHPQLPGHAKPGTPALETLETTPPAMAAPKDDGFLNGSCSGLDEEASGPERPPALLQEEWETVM

cAMP response PTH1R/PTH2R [1] | cAMP response PTH2R/PTH1R [2] | Substance
27 | 0.04 | hPTHrP(1-36) (from UniProt P12272 37-72) (peptide)
0.01 | 165 | hTIP(1-39) (from UniProt Q96A98 62-100) (peptide)
